Data taken from PMC9775280, “A Simple Label-Free Aptamer-Based Electrochemical Biosensor for the Sensitive Detection of C-Reactive Proteins”.

Legend:
C-reactive protein (CRP) = target: T1, C-reactive protein (CRP) (UniProt P02741 19-224); test: electrochemical aptasensor (DPV); 1 ng/mL CRP; aptamer immobilized on SPE/AuNPs/GO-COOH, BSA-blocked; linear range 0.001-100 ng/mL, LOD 2.941e-4 ng/mL; PBS as solvent, 100 uL sample; DPV -0.6 to 0 V, peak about -0.4 V; BSA-blocked electrode; pH, salt and assay temperature not stated; settings: protein: commercial; chain copies: 5
T1 sequence: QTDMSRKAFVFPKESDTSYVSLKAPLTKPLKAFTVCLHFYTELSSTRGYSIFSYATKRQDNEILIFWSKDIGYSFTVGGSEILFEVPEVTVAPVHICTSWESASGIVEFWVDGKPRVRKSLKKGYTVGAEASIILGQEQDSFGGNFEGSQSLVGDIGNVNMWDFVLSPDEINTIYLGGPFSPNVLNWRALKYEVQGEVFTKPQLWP

[1] = target: B-type brain natriuretic peptide (BNP) (UniProt P16860 103-134); test: electrochemical aptasensor (DPV); 1 ng/mL; current below blank, attributed to physical adsorption; PBS as solvent, 100 uL sample; DPV -0.6 to 0 V, peak about -0.4 V; BSA-blocked electrode; pH, salt and assay temperature not stated; settings: protein: commercial
Sequence of B-type brain natriuretic peptide (BNP) (P16860 103-134): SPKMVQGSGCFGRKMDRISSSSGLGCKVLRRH

PSA (PSA standard) = PSA (PSA standard) (UniProt P07288 25-261); test: as above; settings: protein: commercial
Sequence of PSA (PSA standard) (P07288 25-261): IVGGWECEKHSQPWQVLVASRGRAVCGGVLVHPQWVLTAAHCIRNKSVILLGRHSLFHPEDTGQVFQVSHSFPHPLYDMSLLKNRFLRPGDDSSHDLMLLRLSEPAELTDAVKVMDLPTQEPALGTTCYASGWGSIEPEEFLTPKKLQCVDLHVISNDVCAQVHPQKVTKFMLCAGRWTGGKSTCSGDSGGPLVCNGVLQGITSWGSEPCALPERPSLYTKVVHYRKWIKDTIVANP

B1: CRP aptamer (ssDNA)
DNA: GCCTGTAAGGTGGTCGGTGTGGCGAGTGTGTTAGGAGAGATTGC
modifications: 5'-NH2
B1: binds (C-reactive protein (CRP)); no binding [1]; no binding (PSA (PSA standard)).
